Source: patent publication US20170056486A1

Biological target: HLA-A*24 (human)
Assay: UV-exchange ELISA (anti-b2m); yield 50%-75%

Binder: KYQYVLNEF
- peptide exchange yield: 50 to 75%

Binder: KYVGQLAVL
- peptide exchange yield: 50 to 75%

Binder: TYPSQLPSL
- peptide exchange yield: 50 to 75%

Binder: IYAPTLLVF
- peptide exchange yield: 50 to 75%

Binder: IYGEKLQFIF
- peptide exchange yield: 50 to 75%

Binder: VYAIFRILL
- peptide exchange yield: 50 to 75%

Binder: VYPAEQPQI
- peptide exchange yield: 50 to 75%

Binder: SYLELANTL
- peptide exchange yield: 50 to 75%

Binder: VYTKALSSL
- peptide exchange yield: 50 to 75%

Binder: TYSNSAFQYF
- peptide exchange yield: 50 to 75%

Binder: FYIPHVPVSF
- peptide exchange yield: 50 to 75%

Binder: YYSQESKVLYL
- peptide exchange yield: 50 to 75%

Binder: VYLPKIPSW
- peptide exchange yield: 50 to 75%

Binder: VYQKIILKF
- peptide exchange yield: 50 to 75%

Binder: SYLTQHQRI
- peptide exchange yield: 50 to 75%

Binder: VYFEGSDFKF
- peptide exchange yield: 50 to 75%

Binder: VYGEPRELL
- peptide exchange yield: 50 to 75%

Binder: VHFEDTGKTLLF
- peptide exchange yield: 50 to 75%

Binder: EYQEIFQQL
- peptide exchange yield: 50 to 75%

Binder: NYAFLHRTL
- peptide exchange yield: 50 to 75%

Binder: SYLPAIWLL
- peptide exchange yield: 50 to 75%

Binder: KYLESSATF
- peptide exchange yield: 50 to 75%

Binder: GYAFTLPLF
- peptide exchange yield: 50 to 75%

Binder: IYGFFNENF
- peptide exchange yield: 50 to 75%

Binder: SYLVIHERI
- peptide exchange yield: 50 to 75%

Binder: AYAQLGYLL
- peptide exchange yield: 50 to 75%

Binder: VYKDSIYYI
- peptide exchange yield: 50 to 75%

Binder: EYNSDLHQF
- peptide exchange yield: 50 to 75%

Binder: YYLGSGRETF
- peptide exchange yield: 50 to 75%

Binder: LYLPVHYGF
- peptide exchange yield: 50 to 75%

Binder: NYLVDPVTI
- peptide exchange yield: 50 to 75%

Binder: IYNPNLLTASKF
- peptide exchange yield: 50 to 75%

Binder: SYTSVLSRL
- peptide exchange yield: 50 to 75%

Binder: TFDGHGVFF
- peptide exchange yield: 50 to 75%

Binder: VFGKSAYLF
- peptide exchange yield: 50 to 75%

Binder: IFIDNSTQPLHF
- peptide exchange yield: 50 to 75%

Binder: YYFFVQEKI
- peptide exchange yield: 50 to 75%

Binder: QYPYLQAFF
- peptide exchange yield: 50 to 75%

Binder: LYPQLFVVL
- peptide exchange yield: 50 to 75%

Binder: NYSPGLVSLIL
- peptide exchange yield: 50 to 75%

Binder: KYTDWTEFL
- peptide exchange yield: 50 to 75%

Binder: NYLGGTSTI
- peptide exchange yield: 50 to 75%

Binder: VWLPASVLF
- peptide exchange yield: 50 to 75%

Binder: VYVGDALLHAI
- peptide exchange yield: 50 to 75%

Binder: DYLKDPVTI
- peptide exchange yield: 50 to 75%

Binder: RYFKGDYSI
- peptide exchange yield: 50 to 75%

Binder: EYNEVANLF
- peptide exchange yield: 50 to 75%

Binder: VFDTSIAQLF
- peptide exchange yield: 50 to 75%

Binder: RYILENHDF
- peptide exchange yield: 50 to 75%

Binder: SFTKTSPNF
- peptide exchange yield: 50 to 75%

Binder: RFPVQGTVTF
- peptide exchange yield: 50 to 75%

Binder: LYSVIKEDF
- peptide exchange yield: 50 to 75%

Binder: FYTFPFQQL
- peptide exchange yield: 50 to 75%

Binder: SYVKVLHHL
- peptide exchange yield: 50 to 75%
